± gives the standard error. For some of these results: This sample holds only a part of the variants without activity.
B1: glmS ribozyme (parent)
chain: AUAAAAGCGCCAGAACUACAGAAAUGUAGUUGACGAGGAGGAGGUUUAUCGAAUUUUCGGCGGAUGCCUCCAAA

Tests used:
Details in all cases: with glucosamine-6-phosphate
glucosamine-6-phosphate [1] = variants of: B1; experiment: kcat; higher = faster cleavage; RNA array
Summary of the method: (§1)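 Weighted Michaelis–Menten fits across concentrations supplied kcat and KM, based on kobs from one- or two-exponential decay fits to normalised per-tile medians. The data came from barcoded ribozyme variants transcribed in situ by E. coli RNA polymerase on sequenced MiSeq chips and tracked at 37 °C by a hybridised Cy3 probe. Glucosamine-6-phosphate (40 μM to 10 mM) in HEPES/KCl/Mg(OAc)2 buffer was flowed in.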

glucosamine-6-phosphate [2] = variants of: B1; experiment: KM; higher = weaker cofactor use; RNA array
Summary of the method: as §1

glucosamine-6-phosphate [3] = variants of: B1; experiment: self-cleavage kobs at 40 uM GlcN6P; higher = faster cleavage; RNA array
Summary of the method: as §1

glucosamine-6-phosphate [4] = variants of: B1; experiment: self-cleavage kobs at 160 uM GlcN6P; higher = faster cleavage; RNA array
Summary of the method: as §1

glucosamine-6-phosphate [5] = variants of: B1; experiment: self-cleavage kobs at 640 uM GlcN6P; higher = faster cleavage; RNA array
Summary of the method: as §1

glucosamine-6-phosphate [6] = variants of: B1; experiment: self-cleavage kobs at 2500 uM GlcN6P; higher = faster cleavage; RNA array
Summary of the method: as §1

glucosamine-6-phosphate [7] = variants of: B1; experiment: self-cleavage kobs at 10000 uM GlcN6P; higher = faster cleavage; RNA array
Summary of the method: as §1

A15C U55A
kcat (glucosamine-6-phosphate [1]): 0.00649 ± 0.0016 s⁻¹
KM (glucosamine-6-phosphate [2]): 1920 ± 650 µM
self-cleavage kobs at 40 uM GlcN6P (glucosamine-6-phosphate [3]): 0.000161 ± 2.8e-05 s⁻¹
self-cleavage kobs at 160 uM GlcN6P (glucosamine-6-phosphate [4]): 0.000516 ± 8.7e-05 s⁻¹
self-cleavage kobs at 640 uM GlcN6P (glucosamine-6-phosphate [5]): 0.00128 ± 0.00023 s⁻¹
self-cleavage kobs at 2500 uM GlcN6P (glucosamine-6-phosphate [6]): 0.00484 ± 0.00095 s⁻¹
self-cleavage kobs at 10000 uM GlcN6P (glucosamine-6-phosphate [7]): 0.0054 ± 0.00095 s⁻¹

G32A C71A
kcat (glucosamine-6-phosphate [1]): 0.000628 ± 0.00012 s⁻¹
KM (glucosamine-6-phosphate [2]): 2570 ± 890 µM
self-cleavage kobs at 160 uM GlcN6P (glucosamine-6-phosphate [4]): 5.89e-05 ± 1.2e-05 s⁻¹
self-cleavage kobs at 640 uM GlcN6P (glucosamine-6-phosphate [5]): 0.000112 ± 1.6e-05 s⁻¹
self-cleavage kobs at 2500 uM GlcN6P (glucosamine-6-phosphate [6]): 0.000293 ± 4.5e-05 s⁻¹
self-cleavage kobs at 10000 uM GlcN6P (glucosamine-6-phosphate [7]): 0.00052 ± 6e-05 s⁻¹

G41A A64G
kcat (glucosamine-6-phosphate [1]): 0.00209 ± 0.00064 s⁻¹
KM (glucosamine-6-phosphate [2]): 5950 ± 2800 µM
self-cleavage kobs at 160 uM GlcN6P (glucosamine-6-phosphate [4]): 7.21e-05 ± 2e-05 s⁻¹
self-cleavage kobs at 2500 uM GlcN6P (glucosamine-6-phosphate [6]): 0.00071 ± 0.00016 s⁻¹
self-cleavage kobs at 10000 uM GlcN6P (glucosamine-6-phosphate [7]): 0.00128 ± 0.00023 s⁻¹

G29U A53U
kcat (glucosamine-6-phosphate [1]): 0.00357 ± 0.00055 s⁻¹
KM (glucosamine-6-phosphate [2]): 1600 ± 360 µM
self-cleavage kobs at 40 uM GlcN6P (glucosamine-6-phosphate [3]): 8.45e-05 ± 1e-05 s⁻¹
self-cleavage kobs at 160 uM GlcN6P (glucosamine-6-phosphate [4]): 0.000275 ± 4.9e-05 s⁻¹
self-cleavage kobs at 640 uM GlcN6P (glucosamine-6-phosphate [5]): 0.00114 ± 0.00013 s⁻¹
self-cleavage kobs at 2500 uM GlcN6P (glucosamine-6-phosphate [6]): 0.00252 ± 0.00027 s⁻¹
self-cleavage kobs at 10000 uM GlcN6P (glucosamine-6-phosphate [7]): 0.00266 ± 0.00038 s⁻¹

G9A C71U
kcat (glucosamine-6-phosphate [1]): 5.71e-05 ± 4.6e-06 s⁻¹

C11A U54A
kcat (glucosamine-6-phosphate [1]): 0.000163 ± 1.3e-05 s⁻¹
KM (glucosamine-6-phosphate [2]): 1490 ± 400 µM
self-cleavage kobs at 640 uM GlcN6P (glucosamine-6-phosphate [5]): 5.49e-05 ± 1.4e-05 s⁻¹
self-cleavage kobs at 2500 uM GlcN6P (glucosamine-6-phosphate [6]): 9.05e-05 ± 1.9e-05 s⁻¹
self-cleavage kobs at 10000 uM GlcN6P (glucosamine-6-phosphate [7]): 0.000145 ± 1.4e-05 s⁻¹

C16G U54G
kcat (glucosamine-6-phosphate [1]): 0.00297 ± 0.00074 s⁻¹
KM (glucosamine-6-phosphate [2]): 1080 ± 460 µM
self-cleavage kobs at 40 uM GlcN6P (glucosamine-6-phosphate [3]): 0.000177 ± 3.8e-05 s⁻¹
self-cleavage kobs at 160 uM GlcN6P (glucosamine-6-phosphate [4]): 0.000312 ± 6.7e-05 s⁻¹
self-cleavage kobs at 640 uM GlcN6P (glucosamine-6-phosphate [5]): 0.00211 ± 0.0008 s⁻¹
self-cleavage kobs at 2500 uM GlcN6P (glucosamine-6-phosphate [6]): 0.00175 ± 0.0004 s⁻¹
self-cleavage kobs at 10000 uM GlcN6P (glucosamine-6-phosphate [7]): 0.00291 ± 0.00046 s⁻¹

G44U U56A
kcat (glucosamine-6-phosphate [1]): 0.000132 ± 9e-06 s⁻¹
KM (glucosamine-6-phosphate [2]): 2840 ± 550 µM
self-cleavage kobs at 40 uM GlcN6P (glucosamine-6-phosphate [3]): < 1e-05 s⁻¹
self-cleavage kobs at 2500 uM GlcN6P (glucosamine-6-phosphate [6]): 6.59e-05 ± 1e-05 s⁻¹
self-cleavage kobs at 10000 uM GlcN6P (glucosamine-6-phosphate [7]): 0.000102 ± 9.4e-06 s⁻¹

C50A C61G C68G
kcat (glucosamine-6-phosphate [1]): 3.41e-05 ± 1.4e-05 s⁻¹
self-cleavage kobs at 640 uM GlcN6P (glucosamine-6-phosphate [5]): 6.76e-05 ± 1.9e-05 s⁻¹
self-cleavage kobs at 10000 uM GlcN6P (glucosamine-6-phosphate [7]): 2.92e-05 ± 1.3e-05 s⁻¹

U31G A33U
kcat (glucosamine-6-phosphate [1]): 0.000102 ± 8.8e-06 s⁻¹
KM (glucosamine-6-phosphate [2]): 4090 ± 910 µM
self-cleavage kobs at 2500 uM GlcN6P (glucosamine-6-phosphate [6]): 3.73e-05 ± 1.2e-05 s⁻¹
self-cleavage kobs at 10000 uM GlcN6P (glucosamine-6-phosphate [7]): 7.23e-05 ± 1.2e-05 s⁻¹

G32A U69A
kcat (glucosamine-6-phosphate [1]): 9.02e-05 ± 2.8e-05 s⁻¹
self-cleavage kobs at 2500 uM GlcN6P (glucosamine-6-phosphate [6]): 9.73e-05 ± 1.8e-05 s⁻¹
self-cleavage kobs at 10000 uM GlcN6P (glucosamine-6-phosphate [7]): 7.45e-05 ± 1.1e-05 s⁻¹

C67U
kcat (glucosamine-6-phosphate [1]): 0.0229 ± 0.0033 s⁻¹
KM (glucosamine-6-phosphate [2]): 1910 ± 390 µM
self-cleavage kobs at 40 uM GlcN6P (glucosamine-6-phosphate [3]): 0.000527 ± 1.7e-05 s⁻¹
self-cleavage kobs at 160 uM GlcN6P (glucosamine-6-phosphate [4]): 0.0016 ± 0.00012 s⁻¹
self-cleavage kobs at 640 uM GlcN6P (glucosamine-6-phosphate [5]): 0.00529 ± 0.0002 s⁻¹
self-cleavage kobs at 2500 uM GlcN6P (glucosamine-6-phosphate [6]): 0.0117 ± 0.00055 s⁻¹
self-cleavage kobs at 10000 uM GlcN6P (glucosamine-6-phosphate [7]): 0.0215 ± 0.00087 s⁻¹

U30C U54G
kcat (glucosamine-6-phosphate [1]): 0.000209 ± 1.3e-05 s⁻¹
KM (glucosamine-6-phosphate [2]): 411 ± 120 µM
self-cleavage kobs at 160 uM GlcN6P (glucosamine-6-phosphate [4]): 9.02e-05 ± 4.2e-05 s⁻¹
self-cleavage kobs at 640 uM GlcN6P (glucosamine-6-phosphate [5]): 0.000118 ± 2.8e-05 s⁻¹
self-cleavage kobs at 2500 uM GlcN6P (glucosamine-6-phosphate [6]): 0.00018 ± 3.5e-05 s⁻¹
self-cleavage kobs at 10000 uM GlcN6P (glucosamine-6-phosphate [7]): 0.000203 ± 2.5e-05 s⁻¹

A48U C70G
kcat (glucosamine-6-phosphate [1]): 3.29e-05 ± 1e-05 s⁻¹
self-cleavage kobs at 640 uM GlcN6P (glucosamine-6-phosphate [5]): 3.69e-05 ± 1.1e-05 s⁻¹
self-cleavage kobs at 2500 uM GlcN6P (glucosamine-6-phosphate [6]): 4.89e-05 ± 9.2e-06 s⁻¹

A15C C67U
kcat (glucosamine-6-phosphate [1]): 0.00143 ± 0.00033 s⁻¹
KM (glucosamine-6-phosphate [2]): 881 ± 330 µM
self-cleavage kobs at 40 uM GlcN6P (glucosamine-6-phosphate [3]): 7.54e-05 ± 8.7e-06 s⁻¹
self-cleavage kobs at 160 uM GlcN6P (glucosamine-6-phosphate [4]): 0.000198 ± 6.2e-05 s⁻¹
self-cleavage kobs at 640 uM GlcN6P (glucosamine-6-phosphate [5]): 0.00045 ± 6.9e-05 s⁻¹
self-cleavage kobs at 2500 uM GlcN6P (glucosamine-6-phosphate [6]): 0.00177 ± 0.00038 s⁻¹
self-cleavage kobs at 10000 uM GlcN6P (glucosamine-6-phosphate [7]): 0.00139 ± 0.00015 s⁻¹

Reference: the supplement of paper PMC7125110
